T1: TM4SF5 (transmembrane 4 L six family member 5) 단백질 (human, UniProt O14894 1-197)
T1 sequence (looked up): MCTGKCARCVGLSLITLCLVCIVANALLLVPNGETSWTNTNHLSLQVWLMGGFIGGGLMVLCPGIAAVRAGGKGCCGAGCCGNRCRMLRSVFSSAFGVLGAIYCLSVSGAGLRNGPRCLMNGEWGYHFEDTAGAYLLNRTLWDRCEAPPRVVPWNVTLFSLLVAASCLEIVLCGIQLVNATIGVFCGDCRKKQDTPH


Target: T1, TM4SF5 (transmembrane 4 L six family …)
Experiment: cell-based or functional assay

Binder	간암세포주의 침윤 억제 (Transwell assay, Tp 세포, 항체 20㎍/㎖, 48시간) [%]
항-TM4SF5 항체 #1 (scFv-Fc) (Fc fusion) VH: EVQLQQFGAELVRPGASVTLSCKASGYTFTDYEMHWVKQTPVHGLEWIGAIDPETGGTAYNQKFKGKAILTADKSSSTAYMELRSLTSEDSAVYFCARLTLFYGNYDWPFDVWGTGTSVTVSS VL: DIVMTQSQKFMSTSVGDRVSITCKASQNVRTAVAWYQQKPGQSPKLLIYWASTRHTGVPDRFTGSGSGTDFTLTISNVQSEDLADYFCQQYSSYPFTFGSGTKLEIK	83
항-TM4SF5 항체 #27 (scFv-Fc) (Fc fusion) VH: QVQLQQFGAELVRPGASVTLSCKASGYTFTDYEMHWVKQTPVHGLEWIGAIDPETGGTAYNQKFKGKAILTADKSSSTAYMELRSLTSEDSAVYYCTRPYLGYWGQGTTVTVSS VL: DAVVTQTPLSLPVSLGDQASISCRSSQSLVHSNGNTYLHWYLQKPGQSPKLLIYKVSNRFSGVPDRFSGSGSGTDFTLKISRVEAEDLGVYYCFQGSHIPLTFGAGTKLELK	56
항-TM4SF5 항체 #79 (scFv-Fc) (Fc fusion) VH: GVQLQQSGAELVRPGASVKLSCKASGYTFTDYEMHWVKQTPVHGLEWIGAIDPETGGTAYNQKFKGKAILTADKSSSTAYMELRSLTSEDSAVYYCTVYGLAYWGQGTLVTVSA VL: DVVMTQTPLSLPVSLGDQASISCRSSQSLVHSNGNTYLHWYLQKPGQSPKLLIYKVSNRFSGVPDRFSGSGSGTDFTLKISRVEAEDLGVYFCSQNTHVPYTFGGGTKLELK	49
